# Experimental data published in patent publication US20150065381A1.
# Where “and” joins values, the source holds several entries; their conditions need not be identical. Equal values may be shown once.
# How the values were obtained:
# [1] = biological target: HIV-1 16055 envelope (HIV-1); assay: capture ELISA, plate 1, mAb 0.3 ug/ml
# [2] = biological target: HIV-1 JRFL envelope (HIV-1); assay: capture ELISA, plate 1, mAb 0.3 ug/ml
# [3] = biological target: HIV-1 envelope clone BF-002.c05 (multiclade gp160 clone panel) (HIV-1); assay: capture ELISA, plate 1, mAb 0.3 ug/ml
# [4] = biological target: HIV-1 envelope clone BF-002.c08 (multiclade gp160 clone panel) (HIV-1); assay: capture ELISA, plate 1, mAb 0.3 ug/ml
# [5] = biological target: HIV-1 envelope clone F1-002.c11 (multiclade gp160 clone panel) (HIV-1); assay: capture ELISA, plate 1, mAb 0.3 ug/ml
# [6] = biological target: HIV-1 envelope clone F1-002.c16 (multiclade gp160 clone panel) (HIV-1); assay: capture ELISA, plate 1, mAb 0.3 ug/ml
# [7] = biological target: HIV-1 envelope clone G-011.c02 (multiclade gp160 clone panel) (HIV-1); assay: capture ELISA, plate 1, mAb 0.3 ug/ml
# [8] = biological target: HIV-1 envelope clone G-011.c05 (multiclade gp160 clone panel) (HIV-1); assay: capture ELISA, plate 1, mAb 0.3 ug/ml
# [9] = biological target: HIV-1 envelope of gp160 clone AG-010.c11 (HIV-1); assay: capture ELISA, plate 1, mAb 0.3 ug/ml
# [10] = biological target: HIV-1 envelope of gp160 clone AG-010.c14 (HIV-1); assay: capture ELISA, plate 1, mAb 0.3 ug/ml
# [11] = biological target: HIV-1 envelope of gp160 clone B-Acute-008.c11 (HIV-1); assay: capture ELISA, plate 1, mAb 0.3 ug/ml
# [12] = biological target: HIV-1 envelope of gp160 clone B-Acute-009-c08 (HIV-1); assay: capture ELISA, plate 1, mAb 0.3 ug/ml
# [13] = biological target: HIV-1 envelope of gp160 clone B-Acute-010.c08 (HIV-1); assay: capture ELISA, plate 1, mAb 0.3 ug/ml
# [14] = biological target: HIV-1 envelope of gp160 clone B-Acute-010.c09 (HIV-1); assay: capture ELISA, plate 1, mAb 0.3 ug/ml
# [15] = biological target: HIV-1 envelope of gp160 clone B-Chronic-014.c02 (HIV-1); assay: capture ELISA, plate 1, mAb 0.3 ug/ml
# [16] = biological target: HIV-1 16055 envelope (HIV-1); assay: capture ELISA, plate 1, mAb 7.5 ug/ml
# [17] = biological target: HIV-1 JRCSF envelope (HIV-1) (UniProt P20871); assay: capture ELISA, plate 1, mAb 7.5 ug/ml
# [18] = biological target: HIV-1 JRFL envelope (HIV-1); assay: capture ELISA, plate 1, mAb 7.5 ug/ml
# [19] = biological target: HIV-1 envelope clone BF-002.c05 (multiclade gp160 clone panel) (HIV-1); assay: capture ELISA, plate 1, mAb 7.5 ug/ml
# [20] = biological target: HIV-1 envelope clone BF-002.c08 (multiclade gp160 clone panel) (HIV-1); assay: capture ELISA, plate 1, mAb 7.5 ug/ml
# [21] = biological target: HIV-1 envelope clone F1-002.c11 (multiclade gp160 clone panel) (HIV-1); assay: capture ELISA, plate 1, mAb 7.5 ug/ml
# [22] = biological target: HIV-1 envelope clone F1-002.c16 (multiclade gp160 clone panel) (HIV-1); assay: capture ELISA, plate 1, mAb 7.5 ug/ml
# [23] = biological target: HIV-1 envelope clone G-011.c02 (multiclade gp160 clone panel) (HIV-1); assay: capture ELISA, plate 1, mAb 7.5 ug/ml
# [24] = biological target: HIV-1 envelope clone G-011.c05 (multiclade gp160 clone panel) (HIV-1); assay: capture ELISA, plate 1, mAb 7.5 ug/ml
# [25] = biological target: HIV-1 envelope of gp160 clone AG-010.c11 (HIV-1); assay: capture ELISA, plate 1, mAb 7.5 ug/ml
# [26] = biological target: HIV-1 envelope of gp160 clone AG-010.c14 (HIV-1); assay: capture ELISA, plate 1, mAb 7.5 ug/ml
# [27] = biological target: HIV-1 envelope of gp160 clone B-Acute-008.c11 (HIV-1); assay: capture ELISA, plate 1, mAb 7.5 ug/ml
# [28] = biological target: HIV-1 envelope of gp160 clone B-Acute-009-c08 (HIV-1); assay: capture ELISA, plate 1, mAb 7.5 ug/ml
# [29] = biological target: HIV-1 envelope of gp160 clone B-Acute-010.c08 (HIV-1); assay: capture ELISA, plate 1, mAb 7.5 ug/ml
# [30] = biological target: HIV-1 envelope of gp160 clone B-Acute-010.c09 (HIV-1); assay: capture ELISA, plate 1, mAb 7.5 ug/ml
# [31] = biological target: HIV-1 envelope of gp160 clone B-Chronic-014.c02 (HIV-1); assay: capture ELISA, plate 1, mAb 7.5 ug/ml
# [32] = biological target: HIV-1 envelope clone BF-002.c08 (multiclade gp160 clone panel) (HIV-1); assay: capture ELISA, plate 2, mAb 0.8 ug/ml
# [33] = biological target: HIV-1 envelope clone F1-002.c11 (multiclade gp160 clone panel) (HIV-1); assay: capture ELISA, plate 2, mAb 0.8 ug/ml
# [34] = biological target: BG505 envelope (gp120 monomer released from lysed pseudovirus) (HIV-1); assay: antigen capture ELISA, mAb 2.5 ug/ml, plate 1
# [35] = biological target: aMLV envelope (from lysed pseudovirus); assay: antigen capture ELISA, mAb 2.5 ug/ml, plate 1
# [36] = biological target: BG505 envelope (gp120 monomer released from lysed pseudovirus) (HIV-1); assay: antigen capture ELISA, mAb 7.5 ug/ml, plate 1
# [37] = biological target: aMLV envelope (from lysed pseudovirus); assay: antigen capture ELISA, mAb 7.5 ug/ml, plate 1
substance,measurement,setting,value
PGT151 (antibody),ELISA OD,[1],0.053 OD and 0.058 OD
same,ELISA OD,[2],0.074 OD and 0.055 OD
same,ELISA OD,[3],0.08 OD
same,ELISA OD,[4],0.055 OD
same,ELISA OD,[5],0.054 OD
same,ELISA OD,[6],0.062 OD
same,ELISA OD,[7],0.053 OD
same,ELISA OD,[8],0.064 OD
same,ELISA OD,[9],0.055 OD
same,ELISA OD,[10],0.118 OD
same,ELISA OD,[11],0.138 OD
same,ELISA OD,[12],0.085 OD
same,ELISA OD,[13],0.104 OD
same,ELISA OD,[14],0.052 OD
same,ELISA OD,[15],0.195 OD
same,ELISA OD,[16],0.08 OD and 0.078 OD
same,ELISA OD,[17],0.073 OD and 0.086 OD
same,ELISA OD,[18],0.088 OD and 0.08 OD
same,ELISA OD,[19],0.286 OD
same,ELISA OD,[20],0.087 OD
same,ELISA OD,[21],0.087 OD
same,ELISA OD,[22],0.105 OD
same,ELISA OD,[23],0.121 OD
same,ELISA OD,[24],0.089 OD
same,ELISA OD,[25],0.081 OD
same,ELISA OD,[26],0.148 OD
same,ELISA OD,[27],0.256 OD
same,ELISA OD,[28],0.11 OD
same,ELISA OD,[29],0.206 OD
same,ELISA OD,[30],0.081 OD
same,ELISA OD,[31],0.525 OD
same,ELISA OD,[32],0.054 OD
same,ELISA OD,[33],0.072 OD
same,ELISA OD,[34],0.063 OD
same,ELISA OD,[35],0.068 OD and 0.053 OD
same,ELISA OD,[36],0.094 OD
same,ELISA OD,[37],0.098 OD and 0.075 OD
